pKd: −log10 of the molar value.
Biological target: extracellular region of the human tumor antigen c-erbB-2 (human) (UniProt P04626)
Experiment: method not given

- pKd: 9.80
Substance: scFv C6.5

From US20060115810A1
